Assay results from patent US20230167182A1 (BIOSION, published 2023).
Numbering of substitutions follows the chain as printed. Blank lines part the entries; values can stand above or below the binder they belong to.

Legend:
[1] = molecular target: T1, macaca IL6R-his protein (macaca mulatta); assay: SPR Biacore T200; mAb captured by anti-mouse IgG on CM5, antigen in flow, 1:1 fit
T1 chain: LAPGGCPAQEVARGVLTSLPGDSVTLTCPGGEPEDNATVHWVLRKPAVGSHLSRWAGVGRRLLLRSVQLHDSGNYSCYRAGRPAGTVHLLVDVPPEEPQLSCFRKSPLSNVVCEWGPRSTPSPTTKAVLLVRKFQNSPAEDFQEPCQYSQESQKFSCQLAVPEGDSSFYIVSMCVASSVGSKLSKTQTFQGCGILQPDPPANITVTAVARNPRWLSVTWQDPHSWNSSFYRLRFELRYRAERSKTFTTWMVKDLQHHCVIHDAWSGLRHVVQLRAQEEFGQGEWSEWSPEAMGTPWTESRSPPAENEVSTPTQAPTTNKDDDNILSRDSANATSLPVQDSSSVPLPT
Description: (§1) Un-reacted moieties on the biosensor surface were blocked with ethanolamine. […] Then, serially diluted recombinant human IL6R-his (in house made, amino acid sequence set forth in SEQ ID NO: 44) or macaca IL6R-his protein (in house made, amino acid sequence set forth in SEQ ID NO: 45), starting at 100 nM with a 2-fold serial dilution in HBS-EP⁺ buffer (provided by Biacore), was flowed onto the chip at a flow rate of 30 μL/min. The antigen-antibody association kinetics was followed for 2 minutes and the dissociation kinetics was followed for 10 minutes. The association and dissociation curves were fit to a 1:1 Langmuir binding model using BIAcore evaluation software.

[2] = molecular target: T2, recombinant human IL6R-his (human, UniProt P08887 20-365); assay: as above
T2 construct: In house made; the entry includes the C-terminal His tag; also called human IL6R-his protein
T2 sequence: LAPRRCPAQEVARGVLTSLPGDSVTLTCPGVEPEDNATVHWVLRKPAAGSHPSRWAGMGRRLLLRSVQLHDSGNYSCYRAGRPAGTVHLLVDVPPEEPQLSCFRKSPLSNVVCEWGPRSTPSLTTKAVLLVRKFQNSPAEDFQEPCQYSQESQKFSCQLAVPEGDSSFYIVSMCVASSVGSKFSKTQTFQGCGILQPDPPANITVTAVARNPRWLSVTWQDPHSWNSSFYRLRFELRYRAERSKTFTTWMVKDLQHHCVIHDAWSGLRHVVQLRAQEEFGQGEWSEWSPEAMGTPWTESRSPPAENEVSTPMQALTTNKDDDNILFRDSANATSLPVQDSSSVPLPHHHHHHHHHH
Description: as §1

[3] = molecular target: T1, macaca IL6R-his protein; assay: indirect ELISA on plate-coated macaca IL6R-his
Description: The anti-IL6R antibodies were tested for their cross-reaction with macaca IL6R. Briefly, 96-well micro plates were coated with 2 μg/ml macaca IL6R-his protein (in house made, amino acid sequence set forth in SEQ ID NO:45) in carbonate/bicarbonate buffer (pH 9.6), 100 μl/well, for 2 hours at 37° C. ELISA plates were washed once with wash buffer (PBS+0.05% v/v Tween-20, PBST) and then blocked with 200 μl/well blocking buffer (5% w/v non-fatty milk in PBST) for 2 hours at 37° C. Plates were washed 4 times and incubated with 100 μl/well serially diluted anti-IL6R antibodies of the disclosure or controls, starting at 66.67 nM with 5-fold serial dilution in PBST with 2.5% w/v non-fat milk, and incubated at 37° C. for 40 minutes. ELISA plates were washed 4 times again and incubated with 100 μl/well Peroxidase AffiniPure Goat Anti-Mouse IgG, Fcγ Fragment Specific (1:5000 dilution in PBST buffer, Jackson ImmunoResearch Laboratories, Inc., Cat #115-035-071) for 40 minutes at 37° C. After the final wash, plates were incubated with 100 μl/well TMB (InnoReagents). The reaction was stopped 3-10 minutes later at room temperature with 50 μl/well 1M H₂SO₄, and the absorbance of each well was read on a microplate reader using dual wavelength mode with 450 nm for TMB and 630 nm as the reference wavelength. Then the OD (450-630) values were plotted against antibody concentration. Data was analyzed using Graphpad Prism software and EC₅₀ values were reported.

[4] = molecular target: T3, human IL6R-Fc protein (human, biotin-labeled in the ELISAs (sites not given)); assay: capture ELISA: antibody captured on anti-IgG F(ab')2 coated plate, then biotin-labeled human IL6R-Fc, streptavidin-HRP
T3 construct: In house made; also called biotin-labeled human IL6R-Fc protein
T3 sequence (chain, as listed by the source limits assumed): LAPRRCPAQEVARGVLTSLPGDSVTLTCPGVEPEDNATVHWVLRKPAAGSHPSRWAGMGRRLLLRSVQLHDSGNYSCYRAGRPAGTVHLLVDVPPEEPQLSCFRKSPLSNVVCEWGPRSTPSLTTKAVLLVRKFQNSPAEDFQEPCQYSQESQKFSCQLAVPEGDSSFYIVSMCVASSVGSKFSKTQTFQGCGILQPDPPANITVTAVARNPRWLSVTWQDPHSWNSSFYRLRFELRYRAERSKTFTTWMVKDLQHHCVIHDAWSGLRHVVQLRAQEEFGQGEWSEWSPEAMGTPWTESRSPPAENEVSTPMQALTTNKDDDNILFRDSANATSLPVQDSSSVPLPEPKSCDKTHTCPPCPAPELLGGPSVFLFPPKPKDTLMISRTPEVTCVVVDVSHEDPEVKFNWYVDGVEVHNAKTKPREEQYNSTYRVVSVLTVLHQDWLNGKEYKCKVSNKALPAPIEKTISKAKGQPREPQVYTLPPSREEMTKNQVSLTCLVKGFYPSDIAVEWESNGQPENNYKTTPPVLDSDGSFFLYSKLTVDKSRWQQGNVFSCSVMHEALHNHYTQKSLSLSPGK
Description: For the capture ELISA, 96-well micro plates were coated with 2 μg/ml AffiniPure Goat Anti-Mouse IgG, F(ab′)₂ fragment specific (Jackson ImmunoResearch Laboratories, Inc., Cat #115-005-072) in PBS, 100 μl/well, and incubated for 2 hours at 37° C. Plates were washed once with wash buffer (PBS+0.05% v/v Tween-20, PBST) and then blocked with 200 μl/well blocking buffer (5% w/v non-fatty milk in PBST) overnight at 4° C. […] Plates containing captured anti-IL6R antibodies were incubated with biotin-labeled human IL6R-Fc protein (prepared in house, SEQ ID NO: 43, 39.5 ng/ml in 2.5% w/v non-fatty milk in PBST, 100 μl/well) for 40 minutes at 37° C., washed 4 times, and incubated with streptavidin conjugated HRP (1:10000 dilution in PBST, Jackson ImmunoResearch Laboratories, Inc., Cat #016-030-084, 100 μl/well) for 40 minutes at 37° C. After a final wash, plates were incubated with 100 μl/well ELISA substrate TMB (InnoReagents, Cat #TMB-S-002). The reaction was stopped 3-10 minutes later at room temperature with 50 μl/well 1M H₂SO₄, and the absorbance of each well was read on a microplate reader using dual wavelength mode at 450 nm for TMB and 630 nm as the reference wavelength. Then the OD (450-630) values were plotted against antibody concentration. Data was analyzed using Graphpad Prism software and EC₅₀ values were reported.

B1: mouse anti-IL6R monoclonal antibody 1F7 (antibody, V domains shown)
VH: QVQLQQPGAELVKPGASVKLSCKASDYTFTSYWMHWVKQRPGQGLEWIGEINPSNGRTNYNEKFKNKATLTVDKSSSTAYVQLYSLTSEDSAVYYCARLSIHYVFDYWGQGTTLTVSS
VL: ELVLTQSPTTMAASPGEKITFTCSASSSISSNYLHWYQQKPGFSPKLLISGTSNLASGVPPRFSGSGSGTSYSLTIVTMEAEDVATYYCQQGSGIPFTFGSGTKLEIK
notes: Mouse hybridoma mAb
- Kd [1]: 0.523 nM
- koff [1]: 6.46e-05 s⁻¹
- kon [1]: 124000 M⁻¹ s⁻¹
- Kd [2]: 0.537 nM
- koff [2]: 7.46e-05 s⁻¹
- kon [2]: 139000 M⁻¹ s⁻¹
- EC50 [3]: 0.14 nM
- EC50 [4]: 0.0593 nM

B3: mouse anti-IL6R monoclonal antibody 1D4 (antibody, V domains shown)
VH: QVQLQQPGAELVKPGASVKLSCKASGYTFTSYWMHWVKVRPGQGLEWIGEINPTNGRTNYNEDFKSKATLTVNSSSSTAYMQLSSLTSEDSAVYYCARLNTHYVFDYWGQGTTLTVSS
VL: B1 VL with L2I, T10I, M11L, A25V, S50Y, G51R, P61A, V77G
notes: Mouse hybridoma mAb
- Kd [1]: 0.6 nM
- koff [1]: 7.39e-05 s⁻¹
- kon [1]: 123000 M⁻¹ s⁻¹
- Kd [2]: 0.628 nM
- koff [2]: 8.64e-05 s⁻¹
- kon [2]: 138000 M⁻¹ s⁻¹
- EC50 [4]: 0.0558 nM

B4: mouse anti-IL6R monoclonal antibody 1A3 (antibody, V domains shown)
VH: QVQLQQPGAELVKPGASVKLSCKASGYTFTSYWMHWVKQRPAQGLEWIGEINPSNGRTNFNEKFKTKATLTVDKSSNTAYMQLSSLTSEDSAVYSCLRLNTHYVFDYWGQGTTLTVSS
VL: B1 VL with L2I, F21I, G51R, P61T, V77G, E82G
notes: Mouse hybridoma mAb purified on Protein A
- Kd [1]: 0.328 nM
- koff [1]: 4.54e-05 s⁻¹
- kon [1]: 139000 M⁻¹ s⁻¹
- Kd [2]: 0.293 nM
- koff [2]: 4.32e-05 s⁻¹
- kon [2]: 148000 M⁻¹ s⁻¹
- EC50 [4]: 0.073 nM

B7: mouse anti-IL6R monoclonal antibody 1B5 (antibody, V domains shown)
VH: B3 VH with V39Q, T54S, D63N, N73D, S74K
VL: B1 VL with L2I, T10I, M11L, A25V, S50Y, G51R, P61A, V77G
notes: Mouse hybridoma mAb
- Kd [1]: 0.609 nM
- koff [1]: 7.86e-05 s⁻¹
- kon [1]: 129000 M⁻¹ s⁻¹
- Kd [2]: 0.476 nM
- koff [2]: 6.7e-05 s⁻¹
- kon [2]: 141000 M⁻¹ s⁻¹
- EC50 [3]: 0.205 nM
- EC50 [4]: 0.0372 nM

B8: Tocilizumab (antibody, human IgG1, kappa, V domains shown)
VH: QVQLQESGPGLVRPSQTLSLTCTVSGYSITSDHAWSWVRQPPGRGLEWIGYISYSGITTYNPSLKSRVTMLRDTSKNQFSLRLSSVTAADTAVYYCARSLARTTAMDYWGQGSLVTVSS
VL: DIQMTQSPSSLSASVGDRVTITCRASQDISSYLNWYQQKPGKAPKLLIYYTSRLHSGVPSRFSGSGSGTDFTFTISSLQPEDIATYYCQQGNTLPYTFGQGTKVEIKR
notes: In house made; also called benchmark; Actemra
- EC50 [3]: 0.0571 nM

Continued, values first:

- Kd [1]: 0.229 nM
- koff [1]: 3.14e-05 s⁻¹
- kon [1]: 137000 M⁻¹ s⁻¹
- Kd [2]: 0.308 nM
- koff [2]: 4.73e-05 s⁻¹
- kon [2]: 153000 M⁻¹ s⁻¹
- EC50 [3]: 0.213 nM
- EC50 [4]: 0.0436 nM
B2: mouse anti-IL6R monoclonal antibody 1H7 (antibody, V domains shown)
VH: B3 VH with A9T, S31N, V39Q, E46D, D63N, N73D, S74K, Y107S, V116L
VL: B1 VL with L2I, M11L, A25V, G51R, N54T, P61A, V77G, I107L
notes: Mouse hybridoma mAb

- Kd [1]: 0.977 nM
- koff [1]: 0.000127 s⁻¹
- kon [1]: 130000 M⁻¹ s⁻¹
- Kd [2]: 0.911 nM
- koff [2]: 0.000135 s⁻¹
- kon [2]: 148000 M⁻¹ s⁻¹
- EC50 [3]: 0.296 nM
- EC50 [4]: 0.0536 nM
B5: mouse anti-IL6R monoclonal antibody 3C2 (antibody, V domains shown)
VH: QVQLQQPGTELVKPGASVKLSCKASGYTFTTYWIHWVKQRPGQGLEWIGEINPSNGRTNYNEHFKSKATLTVDKSSSTASMQLSSLTSADSAVYYCARLNTHYVFDSWGQGTTLTVSS
VL: B1 VL with L2I, F21I, S50Y, G51R, P61T, R62H, V77G
notes: Mouse hybridoma mAb

- Kd [1]: 0.736 nM
- koff [1]: 8.85e-05 s⁻¹
- kon [1]: 120000 M⁻¹ s⁻¹
- Kd [2]: 0.647 nM
- koff [2]: 9.09e-05 s⁻¹
- kon [2]: 141000 M⁻¹ s⁻¹
- EC50 [4]: 0.085 nM
B6: mouse anti-IL6R monoclonal antibody 1G1 (antibody, V domains shown)
VH: B3 VH with N73E, L83F
VL: B1 VL with L2I, T10I, M11L, A25V, S50Y, G51R, P61A, V77G
notes: Mouse hybridoma mAb

- Kd [1]: 1.65 nM
- koff [1]: 0.000155 s⁻¹
- kon [1]: 94100 M⁻¹ s⁻¹
- Kd [2]: 1.08 nM
- koff [2]: 0.00012 s⁻¹
- kon [2]: 112000 M⁻¹ s⁻¹
- EC50 [4]: 0.0679 nM
B9: mouse anti-IL6R monoclonal antibody 1H9 (antibody, V domains shown)
VH: QVQLQQPGAELVKPGASVKLSCKASGYTFTSYWMHWVKLRPGQGLEWIGEINPTNGRTNYYEKFKNRATLTADKSSSTAYMQLSSLTFEDSAVYFCAKFHYSRWYFDVWGTGTTVTVSS
VL: DIVMTQSQKFMSTSVGDRVSITCKASQNVGTAVVWYQQKPGQSPKLLINPASNRYTGVPDRFTGSGSGTDFTLTISNMQSEDLADYFCQQYSSYPLTFGAGTKLELK
notes: Mouse hybridoma mAb
